The text below walks through data of patent US20190040130A1 (Alector, published 2019).

The chains are these.
T1: human TREM2 expressed on cells (human, UniProt Q9NZC2 19-230)
T1 construct: also called huT2 BW; cell expressed TREM2
T1 sequence: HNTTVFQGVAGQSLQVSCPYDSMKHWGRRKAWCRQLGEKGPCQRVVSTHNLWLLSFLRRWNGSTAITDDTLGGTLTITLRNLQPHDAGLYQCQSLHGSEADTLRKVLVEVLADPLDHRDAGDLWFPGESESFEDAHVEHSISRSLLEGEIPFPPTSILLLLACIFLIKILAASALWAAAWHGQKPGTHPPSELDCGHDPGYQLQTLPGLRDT

B1: AL2p-h77 (antibody, IgG1, V domains shown)
VH: QVQLVQSGAEVKKPGASVKVSCKASGYAFSSSWMNWVRQAPGQRLEWIGRIYPGDGDTNYAQKFQGRVTITADTSASTAYMELSSLRSEDTAVYYCARLLRNQPGESYAMDYWGQGTLVTVSS
VL: DVVMTQSPDSLAVSLGERATINCRSSQSLVHSNGYTYLHWYQQKPGQSPKLLIYKVSNRFSGVPDRFSGSGSGTDFTLTISSLQAEDVAVYYCSQSTRVPYTFGGGTKVEIK
notes: IgG1; Fab in monovalent BLI
B2: AL2p-h50 (antibody, IgG1, V domains shown)
VH: B1 VH with A16S, R44G, I48M, T74E, A76T
VL: DVVMTQTPLSLSVTPGQPASISCRSSQSLVHSNGYTYLHWYLQKPGQSPQLLIYKVSNRFSGVPDRFSGSGSGTDFTLKISRVEAEDVGVYYCSQSTRVPYTFGQGTKLEIK
notes: IgG1; Fab in monovalent BLI
B3: AL2p-h42 (antibody, IgG1, V domains shown)
VH: B1 VH with I48M, A72R
VL: B2 VL
notes: IgG1; Fab in monovalent BLI
B4: AL2p-h47 (antibody, IgG1, V domains shown)
VH: QVQLVQSGAEVKKPGASVKVSCKASGYAFSSSWMNWVRQAPGQGLEWMGRIYPGDGDTNYNGEFRVRVTMTRDTSTSTVYMELSSLRSEDTAVYYCARLLRNQPGESYAMDYWGQGTLVTVSS
VL: B2 VL
notes: IgG1; Fab in monovalent BLI
B5: AL2p-h26 (antibody, IgG1, V domains shown)
VH: B1 VH
VL: B2 VL with V88L, Y92F
notes: IgG1; Fab in monovalent BLI
B6: AL2p-h30 (antibody, IgG1, V domains shown)
VH: B1 VH with R44G, I48M, I70M, A76T
VL: B2 VL with V88L, Y92F
notes: IgG1; Fab in monovalent BLI
B7: AL2p-h33 (antibody, IgG1, V domains shown)
VH: B1 VH with A16S, R44G, V68A, I70L, A76T, S77T, Y95F
VL: B2 VL with V88L, Y92F
notes: IgG1; Fab in monovalent BLI
B8: AL2p-h35 (antibody, IgG1, V domains shown)
VH: B1 VH with A16S, R44G, I48M, V68A, A76T
VL: B2 VL with V88L, Y92F
notes: IgG1; Fab in monovalent BLI
B9: AL2p-h22 (antibody, IgG1, V domains shown)
VH: B1 VH with R44G, I70M, A76T, A79V
VL: B2 VL with V88L, Y92F
notes: IgG1; Fab in monovalent BLI
B10: AL2p-h34 (antibody, IgG1, V domains shown)
VH: B1 VH with A16S, R44G, V68A, A76T, Y95F
VL: B2 VL with V88L, Y92F
notes: IgG1; Fab in monovalent BLI
B11: AL2p-h44 (antibody, IgG1, V domains shown)
VH: B1 VH with V18L, V68A, I70L, Y95F
VL: B2 VL
notes: IgG1; Fab in monovalent BLI
B12: AL2p-h19 (antibody, IgG1, V domains shown)
VH: B1 VH with A16S, R44G, I48M, V68A, A76T
VL: B2 VL with V2I
notes: IgG1; Fab in monovalent BLI
B13: AL2p-h21 (antibody, IgG1, V domains shown)
VH: B4 VH with N61A, G62Q, E63K, R65Q, V66G
VL: B2 VL with V88L, Y92F
notes: IgG1; Fab in monovalent BLI
B14: AL2p-h59 (antibody, IgG1, V domains shown)
VH: B1 VH with I48M, A72R
VL: B2 VL with V2I, T7S, S12P, Q17E, Q105G, L109V
notes: IgG1; Fab in monovalent BLI
B15: AL2p-h23 (antibody, IgG1, V domains shown)
VH: B1 VH with V18L, V20I, R44G, V68A, I70L, A76T, T117A
VL: B2 VL with V88L, Y92F
notes: IgG1; Fab in monovalent BLI

Where a chain is given by its changes, count along the chain named.

This assay has as its target T1, human TREM2 expressed on cells. Description: FACS, BW cells. As for the experimental part: To examine cell binding of anti-TREM2 antibodies, recombinant, human TREM2-expressing BW5147. G.1.4 cells (ATCC® TIB48™) were established by stably expressing either mouse TREM2 or human TREM2 together with Dap12 using viral infection. Cells were harvested by scraping, washed in PBS, counted and plated on 96-well U bottom plates at 1×10⁵ cells/well. The plates were spun at 1,400 rpm for 3 minutes and primary anti-TREM2 or control antibodies were added in FACS buffer (PBS+2% FBS) and incubated on ice for one hour. Cells were subsequently centrifuged as before and washed thrice with FACS buffer. Cells were then incubated with anti-human PE conjugated secondary antibody (BD Biosciences) in FACS buffer for 30 minutes on ice. Cells were again washed thrice with FACS buffer and analyzed on a BD FACS Canto. Binding was measured as mean fluorescence intensity in the […].
On the technique in general: A flow cytometer gives signals particle by particle.
For the molecule B1, the “Cell binding (FOB)” value was determined as 83 fold over background.
For B2 the value was 78 fold over background; for B3, 79 fold over background.
For B4 the value was 93 fold over background; for B5, 78 fold over background; for B6, 88 fold over background.
For B7 the value was 74 fold over background; for B8, 69 fold over background.
B9: the “Cell binding (FOB)” value is 61 fold over background.
For B10 the value was 84 fold over background; for B11, 80 fold over background.
Take B12: the “Cell binding (FOB)” value is 87 fold over background.
For B13 the value was 76 fold over background; for B14, 69 fold over background.
As to B15, the “Cell binding (FOB)” value is 76 fold over background.
